We go through 10 molecules from patent publication US20230050440A1 (Seagen, published 2023).

Where two headings read alike, the source gives them in different places.

For orientation: Kd means the concentration at which binding is half-saturated. Broadly, the EC50 is the concentration at which the effect is half-maximal.

The target of assay [1] is T1, recombinant dimeric human TIGIT-Fc (Acro Biosystems TIT-H5254) (human, UniProt Q495A1 22-141).
T1 construct: Bought protein; also called hTIGIT-Fc; not shown: Fc part of the bought fusion protein
T1 sequence: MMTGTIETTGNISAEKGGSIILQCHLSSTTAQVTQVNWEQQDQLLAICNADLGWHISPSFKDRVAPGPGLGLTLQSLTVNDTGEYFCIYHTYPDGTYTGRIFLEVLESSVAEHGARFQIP
Kind of assay: BLI (ForteBio Octet RED384), IgG on AHQ sensor, 100 nM antigen, 1:1 model. (BLI is a label-free optical method that tracks binding on a fibre tip over time.)

The target in assay [2] is T2, monomeric human TIGIT (Sino Biological 10917-H08H) (human, UniProt Q495A1 22-138, biotinylated in the MSD-SET assay).
T2 construct: Bought protein; also called Human TIGIT monomer; Human TIGIT-His; not shown: His tag
T2 sequence: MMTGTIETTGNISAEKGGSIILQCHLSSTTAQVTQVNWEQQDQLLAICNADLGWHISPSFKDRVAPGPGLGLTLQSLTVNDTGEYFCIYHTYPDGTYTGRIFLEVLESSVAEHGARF
The description is as above.

The target in assay [3] is T3, cynomolgus monkey TIGIT expressed on cells (cynomolgus monkey).
T3 construct: HEK 293 cells stably expressing cynomolgus monkey TIGIT or cynomolgus T cells; also called Cyno TIGIT HEK
Kind of assay: flow cytometry on HEK 293 cells expressing the target, MFI over parental HEK 293.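 Further: bound antibody detected with PE-labelled anti-human IgG, 15 min on ice. FOB equals median fluorescence on TIGIT-positive cells divided by that on target-negative cells.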 A general note: In flow cytometry, cells or beads pass a laser one at a time.

The target in assay [4] is T4, human TIGIT expressed on cells (human, UniProt Q495A1 22-244).
T4 construct: HEK 293 cells stably expressing human TIGIT, primary human T cells or Jurkat effector cells; the cell is named under assay; also called Human TIGIT HEK
T4 sequence: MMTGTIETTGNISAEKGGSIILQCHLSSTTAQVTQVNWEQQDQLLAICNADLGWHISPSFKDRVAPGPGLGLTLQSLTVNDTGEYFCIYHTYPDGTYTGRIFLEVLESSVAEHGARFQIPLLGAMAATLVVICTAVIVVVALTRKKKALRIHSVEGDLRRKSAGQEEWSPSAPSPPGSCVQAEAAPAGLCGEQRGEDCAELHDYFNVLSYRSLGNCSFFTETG
Described as above.

The target of another assay is T5, cyno TIGIT-Fc (cynomolgus monkey).
T5 construct: not shown: Fc part
As to the kind of experiment: BLI (ForteBio), IgG on sensor, avid.

The target of assay [5] is T3, cynomolgus monkey TIGIT expressed on …. As to the kind of experiment: flow cytometry titration, HEK 293 cells expressing cynomolgus TIGIT.
Assay [6] has as its target T4, human TIGIT expressed on cells. As to the kind of experiment: flow cytometry titration, HEK 293 cells expressing human TIGIT.
Assay [7] addresses T2, monomeric human TIGIT (Sino Biological …). Kind of assay: BLI (ForteBio), IgG on sensor, monovalent.
Assay [8] addresses T4, human TIGIT expressed on cells. Kind of assay: flow cytometry titration, HEK 293 cells expressing human TIGIT. The source holds these as a separate data set.
For assay [9] the target is unchanged. As to the kind of experiment: flow cytometry competition with human CD112-Fc on 293-hTIGIT cells.
The target in assay [10] is T3, cynomolgus monkey TIGIT expressed on …. Kind of assay: flow cytometry titration, HEK 293 cells expressing cynomolgus TIGIT. The source holds these as a separate data set.
Assay [11] addresses T4, human TIGIT expressed on cells. Kind of assay: flow cytometry competition with human CD155-Fc on 293-hTIGIT cells.
Assay [12] shares this target. As to the kind of experiment: flow cytometry competition with hCD155-Fc-AlexaFluor647 on 293-hTIGIT cells; the axis 'Percent Blockade' falls as ligand signal is lost.
The target is the same in assay [13]. Kind of assay: flow cytometry competition with hCD112-Fc-AlexaFluor647 on 293-hTIGIT cells; the axis 'Percent Blockade' falls as ligand signal is lost.

T5 sequence (chain, as listed by the source limits assumed): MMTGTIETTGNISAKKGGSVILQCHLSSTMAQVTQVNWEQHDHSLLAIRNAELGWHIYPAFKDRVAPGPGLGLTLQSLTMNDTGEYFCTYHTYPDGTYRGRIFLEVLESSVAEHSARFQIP
T3 sequence (chain, as listed by the source limits assumed): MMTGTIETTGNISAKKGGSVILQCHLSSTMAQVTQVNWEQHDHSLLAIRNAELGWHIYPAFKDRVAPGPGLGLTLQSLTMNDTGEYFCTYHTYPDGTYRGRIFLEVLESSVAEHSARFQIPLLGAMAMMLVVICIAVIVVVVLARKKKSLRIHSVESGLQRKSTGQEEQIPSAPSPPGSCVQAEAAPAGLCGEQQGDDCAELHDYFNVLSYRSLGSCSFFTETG

B1: Clone 25 (antibody, V domains shown)
VH: QVQLVQSGAEVKKPGASVKVSCKASGYTFTSYAISWVRQAPGQGLEWMGWISAYNGNTNYAQKLQGRVTMTTDTSTSTAYMELRSLRSDDTAVYYCARDLSSFWSGDVLGAFDIWGQGTMVTVSS
VL: DIQMTQSPSSLSASVGDRVTITCRASQSISSYLNWYQQKPGKAPKLLIYAASSLQSGVPSRFSGSGSGTDFTLTISSLQPEDFATYYCQQSVPPRTFGGGTKVEIK
notes: Fully human IgG produced in yeast; also called anti-TIGIT clone 25
Consider B1, for which the Kd came out at 0.62 nM in [1], 0.618 nM in [2], 1.5 nM in the assay with cyno TIGIT-Fc and 1.27 nM in assay [7]. Moreover, the “FOB (Fold Over Background)” value in assay [3] was 247 fold; in [4], 205 fold. The EC50 in [5] is 0.19 µg/mL; in [6], 0.14 µg/mL.

B2: Clone 27 (antibody, V domains shown)
VH: QVQLVQSGAEVKKPGASVKVSCKASGYTFTSYAISWVRQAPGQGLEWMGWISAYNGNTNYAQKLQGRVTMTTDTSTSTAYMELRSLRSDDTAVYYCARDLSSFWSGDVLGAFDIWGQGTMVTVSS
VL: EIVMTQSPATLSVSPGERATLSCRASQSVSSNLAWYQQKPGQAPRLLIYGASTRATGIPARFSGSGSGTEFTLTISSLQSEDFAVYYCQQHANHITFGGGTKVEIK
notes: Fully human IgG produced in yeast
Consider B2, for which the Kd in assay [1] was found to be 0.558 nM; in [2], 2.32 nM.

B3: Clone 22 (antibody, V domains shown)
VH: QVQLQESGPGLVKPSETLSLTCAVSGYSISSGYYWAWIRQPPGKGLEWIGSIYHSGSTYYNPSLKSRVTISVDTSKNQFSLKLSSVTAADTAVYYCARQGYYYGSSGSVDFDLWGRGTLVTVSS
VL: DIQMTQSPSSVSASVGDRVTITCRASQGISSWLAWYQQKPGKAPKLLIYAASNLQSGVPSRFSGSGSGTDFTLTISSLQPEDFATYYCQQANSLPPWTFGGGTKVEIK
notes: as for B2
Turning to B3, the Kd in [1] is 0.79 nM; in [2], 13.8 nM.

B4: Clone 21 (antibody, V domains shown)
VH: QLQLQESGPGLVKPSETLSLTCTVSGGSISSSSYYWGWIRQPPGKGLEWIGSIYYSGSTYYNPSLKSRVTISVDTSKNQFSLKLSSVTAADTAVYYCARDPLYQDAPFDYWGQGTLVTVSS
VL: EIVLTQSPATLSLSPGERATLSCRASQSVSSYLAWYQQKPGQAPRLLIYDASNRATGIPARFSGSGSGTDFTLTISSLEPEDFAVYYCQQRANFPTFGGGTKVEIK
notes: as for B2
As for B4, the values for the Kd in assay [1] and in assay [2] were 0.585 nM and 2.18 nM, respectively.

B5: Clone 16 (antibody, V domains shown)
VH: QVQLVQSGAEVKKPGSSVKVSCKASGGTFSSYAISWVRQAPGQGLEWMGGIIPIFGTASYAQKFQGRVTITADESTSTAYMELSSLRSEDTAVYYCARQSTWHKLYGTDVWGQGTTVTVSS
VL: DIQMTQSPSSVSASVGDRVTITCRASQGISSWLAWYQQKPGKAPKLLIYAASSLQSGVPSRFSGSGSGTDFTLTISSLQPEDFATYYCQQGDSLPPTFGGGTKVEIK
notes: as for B2
On to B5, for which the dissociation constant (Kd) was found to be 0.69 nM in assay [1], 2.06 nM in assay [2], 4.67 nM with cyno TIGIT-Fc and 2.52 nM in assay [7]. The “FOB (Fold Over Background)” value in assay [3] was found to be 27 fold; in assay [4], 192 fold. Besides, the EC50 was determined as 0.1 µg/mL in [5] and 0.07 µg/mL in assay [6].

B6: anti-TIGIT clone 13 mIgG1 (antibody)
heavy: QVQLVQSGAEVKKPGSSVKVSCKASGGTFSSYAISWVRQAPGQGLEWMGSIIPIFGTANYAQKFQGRVTITADESTSTAYMELSSLRSEDTAVYYCARGPSEVGAILGYVWFDPWGQGTLVTVSSAKTTPPSVYPLAPGSAAQTNSMVTLGCLVKGYFPEPVTVTWNSGSLSSGVHTFPAVLESDLYTLSSSVTVPSSPRPSETVTCNVAHPASSTKVDKKIVPRDCGCKPCICTVPEVSSVFIFPPKPKDVLTITLTPKVTCVVVDISKDDPEVQFSWFVDDVEVHTAQTQPREEQFNSTFRSVSELPIMHQDWLNGKEFKCRVNSAAFPAPIEKTISKTKGRPKAPQVYTIPPPKEQMAKDKVSLTCMITDFFPEDITVEWQWNGQPAENYKNTQPIMNTNGSYFVYSKLNVQKSNWEAGNTFTCSVLHEGLHNHHTEKSLSHSPGK
light: not shown
notes: also called c13 mIgG1; 13-1
Take B6: the EC50 in assay [8] was 0.05 µg/mL; in assay [10] it was 0.07 µg/mL. The “IC50 (read off the curve)” value in assay [9] was roughly 0.04 µg/mL; in assay [11] it was roughly 0.1 µg/mL.

B7: Clone 2 (antibody, V domains shown)
VH: EVQLVESGGGLVQPGGSLRLSCAASGFTFSDHYMDWVRQAPGKGLEWVGRTRNKANSYTTEYAASVKGRFTISRDDSKNSLYLQMNSLKTEDTAVYYCARGQYYYGSSSRGYYYMDVWGQGTTVTVSS
VL: EIVLTQSPGTLSLSPGERATLSCRASQSVSSSYLAWYQQKPGQAPRLLIYGASSRATGIPDRFSGSGSGTDFTLTISRLEPEDFAVYYCQQAVPSPLTFGGGTKVEIK
notes: Fully human IgG produced in yeast; also called anti-TIGIT antibody clone 2
For B7, the Kd in assay [1] came to 0.956 nM; in [2], 10.1 nM; with cyno TIGIT-Fc it was 1.34 nM; in [7], 8.18 nM. In addition, the “FOB (Fold Over Background)” value in assay [3] was determined as 162 fold; in [4], 158 fold. The values for the EC50 in [5] and in assay [6] were 0.32 µg/mL and 0.15 µg/mL, respectively.

B8: Clone 3 (antibody, V domains shown)
VH: EVQLVESGGGLVQPGGSLRLSCAASGFTFSDHYMDWVRQAPGKGLEWVGRTRNKANSYTTEYAASVKGRFTISRDDSKNSLYLQMNSLKTEDTAVYYCARGQYYYGSSSRGYYYMDVWGQGTTVTVSS
VL: EIVLTQSPGTLSLSPGERATLSCRASQSVRSSYLAWYQQKPGQAPRLLIYGASSRATGIPDRFSGSGSGTDFTLTISRLEPEDFAVYYCQQVGPPLTFGGGTKVEIK
notes: as for B2
Consider B8, for which the Kd in [1] came out at 2.77 nM; in assay [2] it was 73.6 nM.

B9: Clone 54 (antibody, V domains shown)
VH: QVQLVQSGAEVKKPGASVKVSCKASGYTFTSYYMHWVRQAPGQGLEWMGIINPSGGSTSYAQKFQGRVTMTRDTSTSTVYMELSSLRSEDTAVYYCARASDSYGVGLYYGMDVWGQGTTVTVSS
VL: EIVLTQSPGTLSLSPGERATLSCRASQSVRSSYLAWYQQKPGQAPRLLIYGASSRATGIPDRFSGSGSGTDFTLTISRLEPEDFAVYYCQQYYVSPLTFGGGTKVEIK
notes: as for B2
With B9, the Kd in assay [1] came to 0.689 nM; in assay [2], 3.49 nM. Besides, the results for the EC50 in assay [5] and in assay [6] were 11.4 µg/mL and 0.11 µg/mL, respectively.

B10: Clone 13 (antibody, IgG1, V domains shown)
VH: QVQLVQSGAEVKKPGSSVKVSCKASGGTFSSYAISWVRQAPGQGLEWMGSIIPIFGTANYAQKFQGRVTITADESTSTAYMELSSLRSEDTAVYYCARGPSEVGAILGYVWFDPWGQGTLVTVSS
VL: not shown
notes: also called anti-TIGIT clone 13; c13 hIgG1
For the molecule B10, the “IC50 (read off the curve)” value in assay [12], in assay [13], in assay [9] and in assay [11] was roughly 0.1 µg/mL in each case. The Kd in assay [1] is 0.543 nM; in assay [2] it was 2.56 nM; in the assay with cyno TIGIT-Fc, 1.04 nM; in assay [7], 2.63 nM. Besides, the EC50 in assay [8] was found to be 0.09 µg/mL; in assay [10], 0.13 µg/mL; in assay [5], 0.1 µg/mL; in assay [6] it was 0.07 µg/mL. Further, the “FOB (Fold Over Background)” value in assay [3] was found to be 224 fold; in [4], 212 fold.
